Measurements from US10266566.
*1 amine or outer side, *2 acyl side, *3 side chain or, on linkers, in order; H or OH if unused. Where no end group is shown, it is not given here. [ ]: non-standard residue; d: D form. Trp(For) = Nin-formyl-tryptophan, O=Cn1cc(C[C@H](N[*:1])C(=O)[*:2])c2ccccc21; Tyr(Me) = O-methyl-tyrosine, COc1ccc(C[C@H](N[*:1])C(=O)[*:2])cc1; Phe(4-CONH2) = NC(=O)c1ccc(C[C@H](N)C(=O)O)cc1; Trp(1-Me) = Cn1cc(C[C@H](N)C(=O)O)c2ccccc21; Phe(4-Me) = Cc1ccc(C[C@H](N)C(=O)O)cc1; Cit = NC(=O)NCCC[C@H](N)C(=O)O; Lys(Me) = CNCCCC[C@H](N)C(=O)O

Experiments:
[1] = target: Human polyclonal immunoglobulin G (IgG) (human); test: affinity chromatography, peptide on Toyopearl resin, pure human IgG load; yield = IgG eluted/IgG loaded, by Protein G chromatography
[2] = target: Human polyclonal immunoglobulin G (IgG) (human); test: affinity chromatography, peptide resin, 10 mg/mL hIgG in PBS; 2nd run, after resin contacted with alpha-chymotrypsin
[3] = target: Human polyclonal immunoglobulin G (IgG) (human); test: affinity chromatography, peptide resin, 10 mg/mL hIgG in PBS; 1st run, before any enzyme
[4] = target: Human polyclonal immunoglobulin G (IgG) (human); test: affinity chromatography, peptide resin, 10 mg/mL hIgG in PBS; 3rd run, after alpha-chymotrypsin and then trypsin
[5] = target: Human polyclonal immunoglobulin G (IgG) (human); test: affinity chromatography of Cohn fraction II+III on peptide resin; binding buffer PBS + 0M NaCl
[6] = target: Human polyclonal immunoglobulin G (IgG) (human); test: affinity chromatography of Cohn fraction II+III on peptide resin; binding buffer PBS + 0.13M NaCl
[7] = target: Human polyclonal immunoglobulin G (IgG) (human); test: affinity chromatography of Cohn fraction II+III on peptide resin; binding buffer PBS + 0.25M NaCl

Row | Binder | IgG yield [1] | IgG yield [2] | IgG yield [3] | IgG yield [4] | IgG yield [5] | IgG yield [6] | IgG yield [7]
1 | Ac-HWRGWV-{Toyopearl AF‑Amino‑650M resin} [Ac-HWRGWV] |  |  |  |  | 91% | 84% | 83%
2 | H[Tyr(Me)][Phe(4-Me)][Lys(Me)][Phe(4-Me)]D-{Toyopearl AF‑Amino‑650M resin} [HYMetFMetKMetFMetD] | 49% |  |  |  |  |  | 
3 | H[Phe(4-CONH2)][Cit][Cit]HL [HFCarbCitCitHL] | 53% |  |  |  |  |  | 

Further lines, results first:

Row | IgG yield [1] | IgG yield [2] | IgG yield [3] | IgG yield [4] | IgG yield [5] | IgG yield [6] | IgG yield [7] | Binder
4 | 75% | 69% | 75% | 69% |  |  |  | H[Trp(For)][Cit]G[Trp(For)]V (not fully specified (C-terminus)) [HWForCitGWForV]
5 | 91% | 73% | 91% | 71% |  |  |  | HW[Cit]GWV-{Toyopearl AF‑Amino‑650M resin} [HWCitGWV]
6 | 91% | 91% | 91% | 82% |  |  |  | H[Trp(1-Me)]RG[Trp(1-Me)]V-{Toyopearl AF‑Amino‑650M resin} [HWMetRGWMetV]
